{"source": "paper PMC3648463", "about": "“Common Interactions between S100A4 and S100A9 Defined by a Novel Chemical Probe” (PLoS ONE, 2013)", "binders": {"B1": {"name": "recombinant human S100A4 (natural protein)", "chain": "not shown", "notes": "S100A4, human, recombinant (R&D Systems); No catalogue number, limits or tags are stated; also called S100A4 homodimer; metastasin; source: bought: R&D Systems"}}, "key": {"[1]": {"target": "the molecule itself", "assay": "SPR; S100A1, A4, A7, A9 and A13 (~1.3 µg/mL) injected (2 min at 30 µL/min) over immobilised S100A4 and S100A9 (~2.5 kRU); 1 mM Ca++ and 20 µM Zn++; responses at late association phase"}, "recombinant human S100A9": {"target": "T1, recombinant human S100A9 (human, UniProt P06702 1-114)", "T1 construct": "S100A9, human, recombinant; No oligomer size was measured here; also called S100A9 homodimer; source: produced in E. coli at Active Biotech", "T1 sequence (looked up)": "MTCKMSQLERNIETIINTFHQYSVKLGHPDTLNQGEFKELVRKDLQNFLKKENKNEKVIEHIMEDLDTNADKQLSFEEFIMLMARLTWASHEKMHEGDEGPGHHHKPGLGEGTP", "assay": "SPR; S100A1, A4, A7, A9 and A13 (~1.3 µg/mL) injected (2 min at 30 µL/min) over immobilised S100A4 and S100A9 (~2.5 kRU); 1 mM Ca++ and 20 µM Zn++; responses at late association phase", "settings": "both partners purified"}}}
{"binder": "B1", "values": [{"measurement": "binding result", "setting": "[1]", "result": "binds"}, {"measurement": "binding result", "setting": "recombinant human S100A9", "result": "binds"}]}
